Results: PMC7670456

B1: SMAD4: OGT overexpression (protein)
parent chain: MDNMSITNTPTSNDACLSIVHSLMCHRQGGESETFAKRAIESLVKKLKEKKDELDSLITAITTNGAHPSKCVTIQRTLDGRLQVAGRKGFPHVIYARLWRWPDLHKNELKHVKYCQYAFDLKCDSVCVNPYHYERVVSPGIDLSGLTLQSNAPSSMMVKDEYVHDFEGQPSLSTEGHSIQTIQHPPSNRASTETYSTPALLAPSESNATSTANFPNIPVASTSQPASILGGSHSEGLLQIASGPQPGQQQNGFTGQPATYHHNSTTTWTGSRTAPYTPNLPHHQNGHLQHHPPMPPHPGHYWPVHNELAFQPPISNHPAPEYWCSIAYFEMDVQVGETFKVPSSCPIVTVDGYVDPSGGDRFCLGQLSNVHRTEAIERARLHIGKGVQLECKGEGDVWVRCLSDHAVFVQSYYLDREAGRAPGDAVHKIYPSAYIKVFDLRQCHRQMQQQAATAQAAAAAQAAAVAGNIPGPGSVGGIAPAISLSAAAGIGVDDLRRLCILRMSFVKGWGPDYPRQSIKETPCWIEIHLHRALQLLDEVLHTMPIADPQPLD
B2: SMAD4: OSMI-1 (protein)
parent chain: B1 parent chain
B3: SMAD4: T63V (protein)
parent chain: B1 parent chain
B4: SMAD4: thiamet-G (protein)
parent chain: B1 parent chain
B5: SMAD4: QM (protein)
parent chain: B1 parent chain

Assays:
[1] = immunoblot of endogenous SMAD4, A549; conditions: control: mock / control siRNA / DMSO / 5 mM glucose
[2] = anti-FLAG IP, anti-phospho-threonine blot, HEK293, EGF; conditions: glycan gained; control: no OGT overexpression
[3] = denaturing anti-FLAG IP, HA-Ub blot, HEK293, MG132; conditions: glycan lost; control: FLAG-SMAD4 WT
[4] = CHX chase, immunoblot, A549

Protein	expression_or_secretion ([1]; glycan gained)	other: polyubiquitination [3]	further results
B1	increases		other: threonine phosphorylation [2]: decreases
B2			expression_or_secretion ([1]; glycan lost): decreases
B3		increases	degradation_or_half_life ([4]; glycan lost, control: FLAG-SMAD4 WT): decreases
B4	increases		degradation_or_half_life ([4]; glycan gained, control: untreated (endogenous SMAD4)): increases
B5		increases	
